{"source": "patent US20090246142", "key": {"[1]": {"target": "T1, MMP-2 substrate G-K(TAMRA)-G-P-L-G-V-R-G-C-CONH2 with 20 kDa PEG, on ligand (biotin) TSACs (Example 3) (not fully specified)", "T1 chain": "GKGPLGVRGC"}, "[2]": {"target": "T2, MMP-7 substrate G-K(TAMRA)-G-V-P-L-S-L-T-M-G-C-CONH2 with 20 kDa PEG, on receptor (NeutrAvidin) TSACs (Example 3) (not fully specified)", "T2 chain": "GKGVPLSLTMGC"}, "[3]": {"target": "T3, MMP-7-MMP-2 tandem substrate TAMRA-G-K-G-V-P-L-S-L-T-M-Ahx-G-P-L-G-V-R-G-C-CONH2 with 20 kDa PEG, on ligand (biotin) TSACs (Example 3) (not fully specified)", "T3 chain": "GKGVPLSLTMGPLGVRGC"}}, "data": [{"protein": "catalytic domain of matrix metalloproteinase-7 (MMP-7; Biomol) (protein) YSLFPNSPKWTSKVVTYRIVSYTRDLPHITVDRLVSKALNMWGKEIPLHFRKVVWGTADIMIGFARGAHGDSYPFDGPGNTLAHAFAPGTGLGGDAHFDEDERWTDGSSLGINFLYAATHELGHSLGMGHSSDPNAVMYPTYGNGDPQNFKLSQDDIKGIQKLYGKRSNSRKK", "values": [{"measurement": "TSAC assembly in DLS", "setting": "[1]", "result": "Addition of 0.4 µg MMP-2 actuates TSAC assembly, while 0.4 µg MMP-7 or no enzyme is insufficient"}, {"measurement": "TSAC assembly in DLS", "setting": "[2]", "result": "addition of 0.4 µg MMP-7 induces assembly, while 0.4 µg MMP-2 cannot"}, {"measurement": "hydrodynamic radius increase in DLS", "setting": "[3]", "result": "Hydrodynamic radii increased more than 5-fold in the presence of either enzyme or both enzymes"}]}]}
